The results in this text go back to paper PMC5696618 (Journal of biomolecular screening, 2016).

The labels stand for the following.
B1: mouse EAG1 PAS protein (residues 1-137) (domain or fragment, UniProt Q60603 1-137, looked up)
chain: MTMAGGRRGLVAPQNTFLENIVRRSNDTNFVLGNAQIVDWPIVYSNDGFCKLSGYHRAEVMQKSSACSFMYGELTDKDTVEKVRQTFENYEMNSFEILMYKKNRTPVWFFVKIAPIRNEQDKVVLFLCTFSDITAFK
B2: fluorescein-labeled mEAG1 PAS (F-PAS) (domain or fragment, mouse, UniProt Q60603 1-137, looked up)
chain: B1 chain
modifications: fluorescein (fluorescein 5-maleimide) on accessible cysteine residues; fluorescein to protein molar ratio typically 3 or 4
B3: mouse CNBh domain (residues 552-724) (domain or fragment, UniProt Q60603 552-724, looked up)
chain: TEKVLQICPKDMRADICVHLNRKVFKEHPAFRLASDGCLRALAMEFQTVHCAPGDLIYHAGESVDSLCFVVSGSLEVIQDDEVVAILGKGDVFGDVFWKEATLAQSCANVRALTYCDLHVIKRDALQKVLEFYTAFSHSFSRNLILTYNLRKRIVFRKISDVKREEEERMKRK

One data set has as its target hERG PAS domain (Homo sapiens, UniProt Q12809). The data set is described as follows: Thermal shift assay. It counts as binding. The settings on record: for Shift in Tm of hERG PAS protein: dose response, compound solubility issues limited this study.
The target of data set [1] is B3. Put plainly: ITC.
Data set [2] has as its target B3. The data set is described as follows: ITC. The source holds these as a separate data set.
Data set [3] addresses B3. The data set is described as follows: ITC. The source holds these as a separate data set.
Data set [4] concerns the target B3. Put plainly: fluorescence polarisation.
Data set [5] concerns the target B3. Put plainly: fluorescence polarisation. The source holds these as a separate data set.
In data set [6] the target is B3. Put plainly: fluorescence polarisation. The source holds these as a separate data set.
In data set [7] the target is B3. The data set is described as follows: fluorescence polarisation. This is another data set of the same source.
For data set [8], the target named is B3. Put plainly: fluorescence polarisation. This is another data set of the same source.
Data set [9] addresses B1. The data set is described as follows: ITC.
Data set [10] concerns the target B1. The data set is described as follows: ITC. This is another data set of the same source.
For data set [11], the target named is B1. Put plainly: ITC. This is another data set of the same source.

Like-named read-outs stand apart in the source and are kept apart here.

Chain of hERG PAS domain (Q12809 1-135): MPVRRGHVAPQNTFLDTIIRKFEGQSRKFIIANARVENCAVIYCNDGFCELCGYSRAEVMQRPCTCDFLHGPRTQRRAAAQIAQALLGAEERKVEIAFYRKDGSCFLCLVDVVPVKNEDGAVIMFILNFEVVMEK

Take `Oc1ccc(C(c2ccc(O)cc2)(C(F)(F)F)C(F)(F)F)cc1` [Bisphenol AF]: the “Decrease in Tm of hERG PAS protein” value at hERG PAS domain (human, 200 µM, pH 7.5) was “at least 4.5 °C”.
As to `CC(C)(C)c1cc(S)cc(C(C)(C)C)c1O` [ST057196], on hERG PAS domain (on addition of 50 µM of compound), the “Decrease in Tm of hERG PAS protein” value was “more than 18 °C”.
As for `Oc1ccc(Cc2ccc(O)cc2)cc1` [Bisphenol F], the “Shift in Tm of hERG PAS protein” value at hERG PAS domain was “No shift”.
As to `CC(C)(c1ccc(O)cc1)c1ccc(O)cc1` [Bisphenol A], the “Shift in Tm of hERG PAS protein” value on hERG PAS domain is given as “No shift”.
For B1, the Kd was found to be 3300 nM in [1], 1100 nM in data set [2] and 2100 ± 800 nM in data set [3].
With B2, the dissociation constant Kd in [4] is 3600 ± 1200 nM; in data set [5] it was 2400 ± 670 nM; in data set [6], 1800 ± 560 nM; in data set [7] it was 2300 ± 930 nM; in data set [8] it was 3100 ± 1100 nM.
Consider B3, for which the “stoichiometry N” value in data set [9] came to 0.77; in [10], 1.2; in data set [11] it was 1.3 ± 0.27.
